From PMC4016012, “Successful Conversion of the Bacillus subtilis BirA Group II Biotin Protein Ligase into a Group I Ligase” (PLoS ONE, 2014)

Legend:
[1] = target: T1, BirA (biotin protein ligase, Group II) (Bacillus subtilis 168) (UniProt P0CI75); assay: EMSA; conditions: 50 mM Tris-HCl pH 8.0, 1 mM EDTA, 50 mM NaCl, 10% glycerol, 40 nM DNA, 15.6-500 nM BirA, 1 mM ATP, 1 mM MgCl2, 1 uM biotin; room temperature 30 min; 6% gel in …
T1 sequence: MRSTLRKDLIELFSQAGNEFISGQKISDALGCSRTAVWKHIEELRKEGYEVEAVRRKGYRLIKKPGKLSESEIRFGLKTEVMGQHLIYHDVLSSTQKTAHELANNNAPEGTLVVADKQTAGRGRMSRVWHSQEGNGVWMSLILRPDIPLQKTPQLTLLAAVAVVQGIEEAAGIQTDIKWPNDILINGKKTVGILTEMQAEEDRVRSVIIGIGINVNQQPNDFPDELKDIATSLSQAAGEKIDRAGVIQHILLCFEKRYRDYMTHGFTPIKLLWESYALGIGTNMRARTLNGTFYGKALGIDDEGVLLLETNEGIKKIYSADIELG

[2] = target: the molecule itself; assay: cross-linking; purified BirA 30 µM in 50 mM HEPES pH 7.5, 500 mM NaCl, 0.1 mM TCEP, 5% glycerol; with biotin (0.1 mM) and ATP (0.1 mM), room temperature 30 min; EGS 0.125-0.5 mM, room temperature 30 min; SDS-PAGE on 4-20% gels

Molecule	binding [1]	stoichiometry N [2]
CCCTTAGGTTGACATACACAATCATAGAGTAATAAAGAACAAAAAGATTGTCAACATGATTTTAAATTAGGTTAACAAAAAGGAGGCCCATATGTATTTCGGAAAAACAAGACAGTCCGATCAAT (double strand) [yuiG operator]	binds	
CCTTTCACTGATAACTGAAGAACGTGTAGCGCTTCTCACCTAAATTGTTAACCAATTATATTCAAAGGTTAACAATTAGAATATATTATTCTCTCCTGTTTCTGTCAATAGAAGAAAGGATC (double strand) [B. subtilis bioO (bioWAFDBI operator)]	binds	
CCAAAAAGTAATCAAATATGGTTATACAATAAATGCAGGTAATTATTATGTCAACTGATTTTTAATTTAAGTTTACATAATGAACGCAAAAAAACCGGCCGTATGGCAGACCGGTTTTTGATGGT (double strand) [yhfU operator]	binds	
GGGGCTTCTCCAAAACGTGTTTTTTGTTGTTAATTCGGTGTAGACTTGTAAACCTAAATCTTTTCAATTTGGTTTACAAGTCGATTATGACAACGGACGATCTTGCCTTTGACCAACGCCATATC (double strand) [E. coli bioO]	binds more weakly	
AACGATCGGGATTTCCATTTTCATCGATTCCAAAATGGCTACCTCCTGGCCCTTTTCGATTTGGTCGCCGGCTTTGACGTGGACTTTCCACAGGTTTCCTGCCATTTGTATGCTAACCGTCATGC (double strand) [non-operator DNA (yngHB/blap internal fragment)]	no binding	
ATTCAAAGGTTAACAATTAGAATATATTATTCTCTCCTGTTTCTGTCAATAGAAGAAAGGATCGATTTATGGCAGTTGGTTAAAAGGAAACAAAAAGACCGTTTTCACACAAAACGGTCTTTTTC (double strand) [B. subtilis bioO half site]	no binding	
B. subtilis N-terminally hexahistidine-tagged Δ2-65 BirA (domain or fragment, Bacillus subtilis, UniProt P0CI75 66-325, looked up, no step that removes the tag is described; Primer SKH047 (BirA 66-325 NdeI F) reads ATGGGAAAACTCAGTGAAAGC, i.e. M-GKLSES; also called BirA 66-325; Δ2-66 BirA (so named in the methods); source: E. coli BL21 (λ DE3) with pSKH020, purified (Ni NTA)) GKLSESEIRFGLKTEVMGQHLIYHDVLSSTQKTAHELANNNAPEGTLVVADKQTAGRGRMSRVWHSQEGNGVWMSLILRPDIPLQKTPQLTLLAAVAVVQGIEEAAGIQTDIKWPNDILINGKKTVGILTEMQAEEDRVRSVIIGIGINVNQQPNDFPDELKDIATSLSQAAGEKIDRAGVIQHILLCFEKRYRDYMTHGFTPIKLLWESYALGIGTNMRARTLNGTFYGKALGIDDEGVLLLETNEGIKKIYSADIELG		2
B. subtilis N-terminally hexahistidine-tagged BirA (enzyme, Bacillus subtilis, UniProt P0CI75 1-325, looked up, 325 residues by the names of the constructs (64-325 etc.); no step that removes the tag is described; The vector is pET19b, whose own tag may be longer than six histidines and is followed by a linker (surmise); also called wild type BirA; B. subtilis BirA; source: E. coli BL21 (λ DE3) with pSKH001, purified (Ni NTA)) MRSTLRKDLIELFSQAGNEFISGQKISDALGCSRTAVWKHIEELRKEGYEVEAVRRKGYRLIKKPGKLSESEIRFGLKTEVMGQHLIYHDVLSSTQKTAHELANNNAPEGTLVVADKQTAGRGRMSRVWHSQEGNGVWMSLILRPDIPLQKTPQLTLLAAVAVVQGIEEAAGIQTDIKWPNDILINGKKTVGILTEMQAEEDRVRSVIIGIGINVNQQPNDFPDELKDIATSLSQAAGEKIDRAGVIQHILLCFEKRYRDYMTHGFTPIKLLWESYALGIGTNMRARTLNGTFYGKALGIDDEGVLLLETNEGIKKIYSADIELG		2
